Reference: patent US20240174744A1 (SCIRHOM, published 2024)

T1: human iRhom2 (inactive rhomboid protein 2, isoform 1), endogenously expressed on human cells (human, UniProt Q6PJF5 1-856)
T1 sequence: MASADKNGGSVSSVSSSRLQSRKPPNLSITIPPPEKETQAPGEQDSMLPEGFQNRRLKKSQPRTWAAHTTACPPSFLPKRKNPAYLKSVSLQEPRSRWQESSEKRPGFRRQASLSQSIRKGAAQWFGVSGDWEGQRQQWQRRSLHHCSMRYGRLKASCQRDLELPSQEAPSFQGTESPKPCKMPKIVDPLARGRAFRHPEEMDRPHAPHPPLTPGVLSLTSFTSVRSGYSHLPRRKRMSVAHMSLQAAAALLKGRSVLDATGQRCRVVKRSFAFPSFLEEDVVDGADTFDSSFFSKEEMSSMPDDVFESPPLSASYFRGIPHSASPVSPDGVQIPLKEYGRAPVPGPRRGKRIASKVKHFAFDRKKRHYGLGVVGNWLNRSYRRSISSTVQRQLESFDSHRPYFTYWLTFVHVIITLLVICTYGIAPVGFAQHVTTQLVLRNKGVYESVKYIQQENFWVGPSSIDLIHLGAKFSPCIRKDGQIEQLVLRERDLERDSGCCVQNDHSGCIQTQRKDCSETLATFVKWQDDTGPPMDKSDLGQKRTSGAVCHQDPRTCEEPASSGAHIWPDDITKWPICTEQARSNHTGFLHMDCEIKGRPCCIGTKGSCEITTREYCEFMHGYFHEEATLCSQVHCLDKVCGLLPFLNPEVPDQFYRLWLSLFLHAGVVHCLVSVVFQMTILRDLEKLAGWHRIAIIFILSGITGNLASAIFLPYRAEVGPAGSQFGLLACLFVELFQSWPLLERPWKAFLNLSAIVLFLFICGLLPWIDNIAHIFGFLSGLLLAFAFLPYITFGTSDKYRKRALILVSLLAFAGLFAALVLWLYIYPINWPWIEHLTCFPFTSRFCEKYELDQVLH

T2: dog iRhom2 full length wild type, C-terminally tagged with 3 consecutive copies of the T7 epitope (dog, UniProt Q00M95 1-827)
T2 construct: whole, on cells; also called Dog-iR2-FL-WT-T7
T2 sequence: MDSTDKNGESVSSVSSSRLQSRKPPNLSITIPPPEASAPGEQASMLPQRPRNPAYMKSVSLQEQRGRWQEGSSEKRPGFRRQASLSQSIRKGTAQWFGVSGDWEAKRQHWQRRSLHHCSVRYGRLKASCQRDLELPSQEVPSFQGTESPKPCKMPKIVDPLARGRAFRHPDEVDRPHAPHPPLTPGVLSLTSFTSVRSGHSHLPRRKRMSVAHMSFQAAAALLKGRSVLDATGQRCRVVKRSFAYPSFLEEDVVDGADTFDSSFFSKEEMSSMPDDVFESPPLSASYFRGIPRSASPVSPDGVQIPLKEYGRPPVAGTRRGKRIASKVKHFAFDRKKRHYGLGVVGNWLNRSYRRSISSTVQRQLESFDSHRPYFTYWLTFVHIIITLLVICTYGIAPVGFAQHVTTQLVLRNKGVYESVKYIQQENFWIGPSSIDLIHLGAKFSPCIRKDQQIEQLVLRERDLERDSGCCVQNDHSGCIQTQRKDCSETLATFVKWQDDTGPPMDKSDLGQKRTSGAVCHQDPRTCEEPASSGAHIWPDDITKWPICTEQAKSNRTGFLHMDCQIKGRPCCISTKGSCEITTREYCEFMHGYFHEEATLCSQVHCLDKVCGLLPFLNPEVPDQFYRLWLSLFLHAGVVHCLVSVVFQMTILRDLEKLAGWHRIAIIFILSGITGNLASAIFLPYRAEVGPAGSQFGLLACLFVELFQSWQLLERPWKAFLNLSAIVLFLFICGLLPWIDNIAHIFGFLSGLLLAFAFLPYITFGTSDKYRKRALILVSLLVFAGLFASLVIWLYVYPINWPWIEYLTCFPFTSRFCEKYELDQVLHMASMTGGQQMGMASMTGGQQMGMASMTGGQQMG

T3: human iRhom1, endogenously expressed on RH-30 cells (human, UniProt Q96CC6 1-855)
T3 construct: RH-30 cells are described as endogenously negative for iRhom2 but endogenously expressing iRhom1; also called NP_071895.3
T3 sequence: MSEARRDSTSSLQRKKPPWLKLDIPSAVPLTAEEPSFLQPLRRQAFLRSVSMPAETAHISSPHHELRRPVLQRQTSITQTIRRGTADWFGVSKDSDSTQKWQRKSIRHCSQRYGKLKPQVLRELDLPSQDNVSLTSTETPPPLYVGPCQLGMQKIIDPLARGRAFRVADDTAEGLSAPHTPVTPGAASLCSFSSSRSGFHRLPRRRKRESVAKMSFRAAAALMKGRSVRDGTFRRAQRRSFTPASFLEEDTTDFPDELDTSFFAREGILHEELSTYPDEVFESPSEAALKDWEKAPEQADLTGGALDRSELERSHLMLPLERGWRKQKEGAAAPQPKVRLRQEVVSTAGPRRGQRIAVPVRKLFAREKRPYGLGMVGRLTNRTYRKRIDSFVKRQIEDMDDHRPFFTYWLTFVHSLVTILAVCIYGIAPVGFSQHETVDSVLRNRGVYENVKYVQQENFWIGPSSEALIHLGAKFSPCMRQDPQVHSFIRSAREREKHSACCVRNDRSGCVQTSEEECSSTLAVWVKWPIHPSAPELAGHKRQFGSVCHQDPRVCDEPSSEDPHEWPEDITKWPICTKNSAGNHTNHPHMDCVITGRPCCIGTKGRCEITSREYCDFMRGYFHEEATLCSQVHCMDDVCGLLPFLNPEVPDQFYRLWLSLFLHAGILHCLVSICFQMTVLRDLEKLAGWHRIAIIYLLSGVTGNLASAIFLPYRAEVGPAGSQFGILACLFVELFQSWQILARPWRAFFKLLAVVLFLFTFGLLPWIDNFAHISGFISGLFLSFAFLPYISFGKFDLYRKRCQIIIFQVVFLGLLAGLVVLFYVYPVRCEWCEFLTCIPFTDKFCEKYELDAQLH


Columns and labels:
[1] = molecular target: T1, human iRhom2 (inactive rhomboid protein …); assay: cell-based or functional assay
[2] = molecular target: T2, dog iRhom2 full length wild type, …; assay: FACS on MEF-DKO-iR2 Dog cells, 3 µg/ml
Description: In brief, immortalized MEF-DKO-EV control cells, MEF-DKO-rhesus-iR2-FL-WT-T7 cells, MEF-DKO-cyno-iR2-FL-WT-T7 cells, MEF-DKO-dog-iR2-FL-WT-T7 cells and MEF-DKO-rabbit-iR2-FL-WT-T7 cells, as well as their respective iRhom1 counterparts, were harvested with 10 mM EDTA in PBS, washed and resuspended in FACS buffer (PBS, 3% FBS, 0.05% sodium azide), and seeded in Nunc U-bottom 96-well plates (Thermo Fisher Scientific, USA) at approximately 3×10⁵ cells per well. To pellet cells and remove supernatants, the plates were centrifuged at 1,500 rpm and 4° C. for 3 minutes. For primary staining, cells were resuspended in 100 μl per well of either FACS buffer alone (controls), mouse monoclonal anti-T7 IgG (Merck Millipore, USA) at 3 μg/ml FACS buffer or the antibodies of the present disclosure also at 3 μg/ml FACS buffer and incubated on ice for 1 hour. Afterwards, plates were centrifuged at 1,500 rpm and 4° C. for 3 minutes and washed twice with 200 μl per well of FACS buffer. For secondary staining, cells were spun down and resuspended in 100 μl per well of PE-conjugated goat anti-mouse IgG F(ab′)2 detection fragment (Dianova, Germany) diluted 1:100 in FACS buffer. Protected from light, the cell suspensions were incubated on ice for 1 hour. […] Finally, cells were resuspended in 150 μl per well of FACS buffer and analyzed using a BD Accuri™ C6 Plus flow cytometer (Becton Dickinson, Germany).

[3] = molecular target: T3, human iRhom1, endogenously expressed on …; assay: FACS on RH-30 cells (iRhom1-positive, not iRhom2-positive)

Binder	inhibition of LPS-induced release of TNFα from PBMCs of rheumatoid arthritis patients, 1 µg/ml, chimeric antibody [1]	inhibition of PMA-induced release of HB-EGF from PBMCs of rheumatoid arthritis patients, 1 µg/ml, chimeric antibody [1]	inhibition of PMA-induced release of HB-EGF from THP-1 cells, 3 µg/ml [1]	inhibition of PMA-induced release of HB-EGF from U-937 cells [1]	inhibition of PMA-induced release of IL-6R from PBMCs of rheumatoid arthritis patients, 1 µg/ml, chimeric antibody [1]	inhibition of PMA-induced release of IL-6R from U-937 cells, 3 µg/ml [1]	inhibition of PMA-induced release of TNFα from U-937 cells, 3 µg/ml [1]	binding result [2]	binding result [3]
chimeric version of antibody 16 (antibody, V domains shown, Chimeric version made in CHO cells, detected with anti-human IgG; the variable domains are those of clone #16; also called ch16) VH: QVTLKESGPGILQPSQTLSLTCSFSGFSLSTFALGVGWIRQPSGRGLEWLAHIWWDDDKYYNPALKSRLTISKDTSKNHVFLKIANVDTADTATYYCARITTYYYGMDYWGQGTSVTVSS VL: DIVLSQSPATLSVTPGDSVSLFCRASQSIGNHLHWYQQESHASPRLLIKYASQSISGIPSRFSGSGSGTDFTLSINSVETEDFGMYFCQQSYNWPLTFGAGTKLELK	83.6 % inhibition	66 % inhibition	73.6 % inhibition	101 % inhibition	72.3 % inhibition	84.3 % inhibition	93.7 % inhibition	binds	no binding (tested: 3 µg/ml)
chimeric version of antibody 22 (antibody, V domains shown) VH: QVTLKESGPGILQPSQTLSLTCSFSGFSLSTFGMGVGWIRQPSGKGLEWLAHIWWDDEKYYNSALKSRLTISKATSKNQVFLKIANVDTADTATYYCARISNYGSNYWYFNVWGTGTTVTVSS VL: QVVLTQSPALMSASPGEKVTMTCSAGSSVSYMYWYQQKPGSSPRVLIYDTSNLASGVPARFTGSGSGTSYSLTISRMEAEDAATYYCQQWNSYPLTFGAGTKLELK	76.5 % inhibition	54.7 % inhibition	81.9 % inhibition	103 % inhibition	61.1 % inhibition	85.6 % inhibition	96.5 % inhibition	–	–
chimeric version of antibody 34 (antibody, V domains shown) VH: QVTLKESGPGILQPSQTLSLTCSFSGFSLSTFSLGVGWIRQSSGKGLEWLAHIWWDDEKYYNPALKSRLTISKDTSKNQVFLKIANVDAADTATYYCARAYYSKSYYALDYWGQGTSVTVSS VL: DIQMTQSPSSLSASLGERVSLTCRASQEISGYLSWLQQKPDGTIKRLIYAASTLDSGVPKRFSGSRSGSDYSLAISSLESEDFADYYCLQYANFPFTFGSGTKLEIK	66.6 % inhibition	30.6 % inhibition	76.1 % inhibition	98.1 % inhibition	45.6 % inhibition	82.8 % inhibition	87.4 % inhibition	–	–
chimeric version of antibody 42 (antibody, V domains shown) VH: QVTLKESGPGILQPSQTLSLTCSLSGFSLSTFGRGVGWIRQPSGKGLEWLAHIWWDDEKYYNPALKSRLTISKDTSKNQVFLRIANVDTADTATYYCARIQNYGSNYWYFDVWGTGTTVTVSS VL: LIVLTQSPAIMSASPGEKVTMTCGATSRISYMFWYQQKPGSSPRVLIYDTSNLASGVPVRFSGSGSGTSYSLTISRVEAEDVATYYCQQWNSYPLTFGAGTKLELK	82.1 % inhibition	76.1 % inhibition	80.8 % inhibition	103 % inhibition	73.5 % inhibition	91.8 % inhibition	96.5 % inhibition	–	–
chimeric version of antibody 44 (antibody, V domains shown) VH: QVTLKESGPGILQPSQTLSLTCSFSGFSLSTFGMGVGWIRQPSEKGLEWLAHIWWDDDKYYNPALKSRLTISKDTSKNQIFLKITNVDTAETATYYCSRIGNYGSNYWYFDVWGTGTTVTVSS VL: QIVLTQSPAVMSASPGEKVTMTCTASSSVYYMYWYQQTPGSSPRLLIYDTSNLASGVPVRFSGSGSGTSYSLTISRMEAEDAATYYCQQWNTYPLTFGAGTKLELK	70.2 % inhibition	37.8 % inhibition	70.7 % inhibition	99.2 % inhibition	53.1 % inhibition	85.2 % inhibition	89.2 % inhibition	–	–
